Laboratory results as given in article PMC9040721.
pKd: −log10 of the molar value.

Assays:
[1] = target: recombinant TRP120 tandem repeat domain, His-tagged (rTRP120-TR) (E. chaffeensis) (UniProt Q2GI62); assay: SPR; Biacore T100, NTA sensor chip; His-tagged TRP120-FL, TRP120-TR or TRX (0.1 uM) immobilised; Fc-tagged Notch-1 LBR as analyte, 2-fold dilutions 800 nM to 25 nM; 25 C; 100 mM sodium phosphate pH 7.4, 400 mM NaCl, 40 uM EDTA; 1:1 Langmuir model
[2] = target: recombinant full-length TRP120, His-tagged (rTRP120-FL) (E. chaffeensis) (UniProt Q2GI62); assay: as above

Substance: human rNotch-1 Fc Chimera Protein, CF (R&D Systems); Fc-tagged Notch-1 ligand-binding region (LBR) (from UniProt P46531 19-2555) (Fc fusion)
- pKd [1]: 6.92
- pKd [2]: 7.00
